{"source": "patent US20040170955A1", "about": "(University of Texas, published 2004)", "key": {"[1]": {"molecular_target": "T1, GST-β3cyto (GST fusion protein of the β3 integrin cytoplasmic domain) (UniProt P05106 742-788)", "T1 construct": "domain: cytoplasmic domain; Recombinant GST fusion coated on microtiter wells; also called β3-GST; β3 cytoplasmic domain fusion protein; not shown: glutathione S-transferase (GST) fusion partner", "T1 sequence (P05106 742-788)": "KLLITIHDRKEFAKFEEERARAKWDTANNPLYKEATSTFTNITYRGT", "assay": "phage binding to β3, colonies with Fyn-phosphorylated phage / unphosphorylated phage", "description": "(§1) Phosphorylation of peptide libraries with src family protein kinases (Fyn, c-Src, Lyn, and Syc) and serine/threonine kinases such as a MAP kinase were performed as described previously (Schmitz et al., 1996; Dente et al., 1997; Gram et al., 1997). Briefly, phage particles were collected from culture supernatants by double precipitation with 20% polyethylene glycol 8000 in 2.5 M NaCl. Particles were dissolved at 10¹² particles/ml. Purified phage (10 μl) were incubated for 3 hours at room temperature with different concentrations (35 to 3,500 units) of protein kinases in a reaction buffer volume of 50 μl. The reaction mixtures were transferred to tubes containing 10 μg of agarose-conjugated anti-P-Tyr, anti-P-Ser, or anti-P-Thr monoclonal antibodies to select phage displaying phosphorylated peptides. Bound phage were eluted by washing the column with 0.3 ml of elution buffer (0.1 M NaCl/glycine/1 mg/ml BSA, pH 2.35). The eluates were neutralized with 2 M Tris-base and incubated with 2 ml of a mid-log bacteria culture.\n(§2) Amino acid sequences of the phagemid encoded peptides were deduced from nucleotide sequences."}, "[2]": {"molecular_target": "T1, GST-β3cyto (GST fusion protein of the …)", "assay": "phosphorylated phage binding, β3 colonies / BSA colonies", "description": "as §1, §2"}, "[3]": {"molecular_target": "T1, GST-β3cyto (GST fusion protein of the …)", "assay": "phosphorylated phage binding, β3 colonies / GST colonies", "description": "as §1, §2"}}, "note": "Ends that are not written are not given here."}
{"binder": "RAILYRLAN (not fully specified (residue 5); also: displayed on phage, whole phage tested)", "note": "[Fyn-phosphorylated phage displaying RAILYRLAN (SEQ ID NO:116)]", "values": [{"measurement": "Phos/Unphos", "setting": "[1]", "value": 2.8, "unit": "ratio"}, {"measurement": "β3 or β5/BSA", "setting": "[2]", "value": 20, "unit": "ratio"}, {"measurement": "β3 or β5/GST", "setting": "[3]", "value": 1.3, "unit": "ratio"}]}
